Experimental data: US20180237497A1 (CANCER RESEARCH TECHNOLOGY, published 2018)

Key:
[1] = target: T1, human IGF2^1-67 (mature insulin-like growth factor 2) (human, UniProt P01344 25-91, biotinylated (site not stated) where immobilised on the chip (Tables 1-4)); assay: SPR kinetic, biotin-IGF2 on chip, pH 7.4
T1 construct: mature; also called mature IGF2; biotinylated IGF2
How it was run: (§1)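 Biacore SPR at 25 °C in HBS-EP pH 7.4 or MES-EP pH 6.5, flow 40 μL/min; ~50 RU biotin-IGF2:biotin-ubiquitin (1:8) on streptavidin chip, or Fc-domain 11 captured via anti-human IgG. Kinetics fitted to 1:1 model; steady-state affinity from response averaged 5 s before injection end.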

[2] = target: T1, human IGF2^1-67 (mature insulin-like …); assay: SPR kinetic, biotin-IGF2 on chip, pH 6.5
Experimental: Measurements were carried out at 25° C. in MES-EP buffer, 20 mM MES pH 6.5, 150 mM NaCl, 3 mM EDTA, and 0.005% (v/v) surfactant P20). Data for KD expressed as mean of each experiment, and means of kon and koff are shown.
(§2) Final kinetic analysis of mutants by SPR was conducted using a Biacore T200 biosensor at 25° C. in either HBS-EP (10 mM HEPES pH 7.4, 150 mM NaCl, 3 mM EDTA, and 0.005% (v/v) surfactant P20) or MES-EP (20 mM MES pH 6.5, 150 mM NaCl, 3 mM EDTA, and 0.005% (v/v) surfactant P20) at a flow-rate of 40 μL min⁻¹. […] For the analysis of the Fc-domain 11^AB5 interaction, approximately 50 RU of a biotinylated IGF2:biotinylated ubiquitin mixture (1:8 proportion) was immobilized on the CM5-streptavidin chip. This interaction was also analysed by immobilizing the Fc-domain 11^AB5 and Fc-domain 11^AB5-RHH (or Fc-domain 11^I1572A as control) by Human Antibody Capture (monoclonal mouse anti-human IgG antibody immobilised on a CM5 chip by amine coupling, GE Healthcare) with and without human IgG1 Fc fragment (Bethyl Laboratories, UK) in the control flow cell. […] T200 BiaEvaluation software (GE Healthcare) was used to fit the resulting curves according to a 1:1 binding model. Steady state affinities were determined using the kinetic data, taking the response average at 5 seconds before injection end and for 5 seconds average. Thermodynamic data was performed across the temperature range of 10° C. to 30° C., van't Hoff and Erying plots generated and ΔH, −TΔS and ΔG values determined as previously described.

[3] = target: T1, human IGF2^1-67 (mature insulin-like …); assay: SPR steady state, biotin-IGF2 on chip, pH 7.4
How it was run: as §1

[4] = target: T1, human IGF2^1-67 (mature insulin-like …); assay: SPR (Biacore T200, 25 °C, HBS-EP pH 7.4); ΔΔG° = RT ln(KD mutant / KD domain 11^AB3); box AB+CD+FG, dashed outline
Experimental: (§3) Boxes show the change in the binding free energy contribution, ΔΔGº, for the indicated mutants. The loop/s that contains the mutation/s is indicated in each box. The ΔΔGº values were calculated as ΔΔGº=ΔGº domain 11^mutant−ΔGº domain 11^AB3=RTln(KD domain 11^mutant/KD domain 11^AB3). Additive and non-additive contributions of single point mutations are shown when calculated with a box solid line and dashed line, respectively.
(§4) Final kinetic analysis of mutants by SPR was conducted using a Biacore T200 biosensor at 25° C. in either HBS-EP (10 mM HEPES pH 7.4, 150 mM NaCl, 3 mM EDTA, and 0.005% (v/v) surfactant P20) or MES-EP (20 mM MES pH 6.5, 150 mM NaCl, 3 mM EDTA, and 0.005% (v/v) surfactant P20) at a flow-rate of 40 μL min⁻¹. […] This interaction was also analysed by immobilizing the Fc-domain 11^AB5 and Fc-domain 11^AB5-RHH (or Fc-domain 11^I1572A as control) by Human Antibody Capture (monoclonal mouse anti-human IgG antibody immobilised on a CM5 chip by amine coupling, GE Healthcare) with and without human IgG1 Fc fragment (Bethyl Laboratories, UK) in the control flow cell. […] Steady state affinities were determined using the kinetic data, taking the response average at 5 seconds before injection end and for 5 seconds average.

[5] = target: T1, human IGF2^1-67 (mature insulin-like …); assay: SPR (Biacore T200, 25 °C, HBS-EP pH 7.4); ΔΔG° = RT ln(KD mutant / KD domain 11^AB3); box AB+CD+FG+FG, dashed outline
Experimental: as §3, §4

[6] = target: T1, human IGF2^1-67 (mature insulin-like …); assay: SPR (Biacore T200, 25 °C, HBS-EP pH 7.4); ΔΔG° = RT ln(KD mutant / KD domain 11^AB3); box AB+CD+FG+FG, solid outline
Experimental: as §3, §4

[7] = target: T1, human IGF2^1-67 (mature insulin-like …); assay: SPR, biotin-IGF2 on chip, lower pH (6.5); reference domain 11^WT
Experimental: as §2

[8] = target: T1, human IGF2^1-67 (mature insulin-like …); assay: SPR (Biacore T200, 25 °C, HBS-EP pH 7.4); ΔΔG° = RT ln(KD mutant / KD domain 11^AB3); box AB+CD+FG+FG
Experimental: as §3, §4

[9] = target: T1, human IGF2^1-67 (mature insulin-like …); assay: SPR (Biacore T200, 25 °C, HBS-EP pH 7.4); ΔΔG° = RT ln(KD mutant / KD domain 11^AB3); box AB+FG+FG, solid outline
Experimental: as §3, §4

T1 sequence (P01344 25-91): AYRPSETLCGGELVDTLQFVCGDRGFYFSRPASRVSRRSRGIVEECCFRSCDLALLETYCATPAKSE

| Kd [1] | koff [1] | kon [1] | Kd [2] | koff [2] | kon [2] | Kd [3] | ΔΔG [4] | ΔΔG [5] | ΔΔG [6] | fold improved overall affinity compared to domain 11^WT [7] | ΔΔG [8] | ΔΔG [9] | Binder |
| --- | --- | --- | --- | --- | --- | --- | --- | --- | --- | --- | --- | --- | --- |
| 0.9 nM | 0.0153 s⁻¹ | 1.89e+07 M⁻¹ s⁻¹ | 0.47 nM | 0.0091 s⁻¹ | 1.99e+07 M⁻¹ s⁻¹ | 1.73 nM | -1.68 kcal/mol | – | – | – | – | – | domain 11^AB3 Q1569R P1597H (receptor, See m5) MKSNEHDDCQVTNPSTGHLFDLSSLSGRAGFTAAYSKSGVVYMSICGENENCPPGVGACFGRTRISVGKANKRLRYVDQVLQLVYKDGSHCPSKSGLSYKSVISFVCRPEAGPTNRPMLISLDKQTCTLFFSWHTPLACEQATECSV |
| 0.87 nM | 0.0058 s⁻¹ | 6.67e+06 M⁻¹ s⁻¹ | 0.69 nM | 0.0051 s⁻¹ | 7.54e+06 M⁻¹ s⁻¹ | 2.01 nM | – | -1.7 kcal/mol | – | – | – | – | domain 11^AB5 Q1569R P1597H G1603K (receptor, See m5) MKSNEHDDCQVTNPSTGHLFDLSSLSGRAGFTAAYAKGWGVYMSICGENENCPPGVGACFGRTRISVGKANKRLRYVDQVLQLVYKDGSHCPSKSKLSYKSVISFVCRPEAGPTNRPMLISLDKQTCTLFFSWHTPLACEQATECSV |
| 0.65 nM | 0.0038 s⁻¹ | 5.9e+06 M⁻¹ s⁻¹ | 0.71 nM | 0.003 s⁻¹ | 4.41e+06 M⁻¹ s⁻¹ | 2 nM | – | – | -1.87 kcal/mol | – | – | – | domain 11^AB5 Q1569R P1597H S1602H (receptor, See m5) MKSNEHDDCQVTNPSTGHLFDLSSLSGRAGFTAAYAKGWGVYMSICGENENCPPGVGACFGRTRISVGKANKRLRYVDQVLQLVYKDGSHCPSKHGLSYKSVISFVCRPEAGPTNRPMLISLDKQTCTLFFSWHTPLACEQATECSV |
| 1.95 nM | 0.0058 s⁻¹ | 3.2e+06 M⁻¹ s⁻¹ | 1.46 nM | 0.0034 s⁻¹ | 2.37e+06 M⁻¹ s⁻¹ | 5.4 nM | -1.22 kcal/mol | – | – | – | – | – | domain 11^AB5 Q1569R P1597H (receptor, See m5) MKSNEHDDCQVTNPSTGHLFDLSSLSGRAGFTAAYAKGWGVYMSICGENENCPPGVGACFGRTRISVGKANKRLRYVDQVLQLVYKDGSHCPSKSGLSYKSVISFVCRPEAGPTNRPMLISLDKQTCTLFFSWHTPLACEQATECSV |
| 0.74 nM | 0.01 s⁻¹ | 1.41e+07 M⁻¹ s⁻¹ | 0.4 nM | 0.0064 s⁻¹ | 1.61e+07 M⁻¹ s⁻¹ | 1.53 nM | – | – | – | 100 fold | -1.79 kcal/mol | – | domain 11^AB3 Q1569R P1597H S1602H (receptor, See m5) MKSNEHDDCQVTNPSTGHLFDLSSLSGRAGFTAAYSKSGVVYMSICGENENCPPGVGACFGRTRISVGKANKRLRYVDQVLQLVYKDGSHCPSKHGLSYKSVISFVCRPEAGPTNRPMLISLDKQTCTLFFSWHTPLACEQATECSV |
| 1.17 nM | 0.0046 s⁻¹ | 3.5e+06 M⁻¹ s⁻¹ | 0.62 nM | 0.0029 s⁻¹ | 5.32e+06 M⁻¹ s⁻¹ | 2.93 nM | – | – | – | – | – | -1.52 kcal/mol | domain 11^AB5 P1597H S1602H (receptor, See m5) MKSNEHDDCQVTNPSTGHLFDLSSLSGRAGFTAAYAKGWGVYMSICGENENCPPGVGACFGQTRISVGKANKRLRYVDQVLQLVYKDGSHCPSKHGLSYKSVISFVCRPEAGPTNRPMLISLDKQTCTLFFSWHTPLACEQATECSV |
